Publication PMC5372565, “Proline Residues as Switches in Conformational Changes Leading to Amyloid Fibril Formation” (International Journal of Molecular Sciences, 2017)
“And” between values parts separate entries of the source, which are not always exact repeats. Identical values can stand only once. Blank lines part the entries; values can stand above or below the molecule they belong to.

Experiments:
P04080 [1] = assay: SEC; Y31 variant and its mutants; conditions not told for this experiment
[2] = target: stefin B-Y31 P79S mutant (human) (UniProt P04080); assay: as above
P04080 [3] = assay: SEC; Superdex 75 FPLC column, 0.5 mL/min, typically 100 uL of 50 uM protein, 10 mM potassium phosphate pH 7.0, 0.15 M NaCl; samples frozen and unfrozen once; percentages estimated from the surface area of the peaks
[4] = target: the molecule itself; assay: as above
P04080 [5] = assay: SEC; Y31 variant and its mutants; conditions not told for this experiment; remark: listed apart in the source
[6] = target: the molecule itself; assay: as above

Molecule: stefin B-Y31 P79S mutant
percent dimers (SEC) (P04080 [1]): 100% were dimeric

stoichiometry N [2]: 2
Molecule: stefin B-Y31 P79S mutant (from UniProt P04080 4-98) (natural protein)

B1: stefin B P79S mutant (of the wt C3S E31-stefin B) (natural protein, human, UniProt P04080 1-98, looked up)
chain: MMSGAPSATQPATAETQHIADQVRSQLEEKENKKFPVFKAVSFKSQVVAGTNYFIKVHVGDEDFVHLRVFQSLPHENKSLTLSNYQTNKAKHDELTYF
notes: human stefin B (cystatin B), 98 amino acids, E31 variant, C3S, with P79S
percent dimers (SEC peak area) (P04080 [3]): 55% dimers
percent higher molecular weight species (SEC peak area) (P04080 [3]): 15% of higher molecular weight species
percent tetramers (SEC peak area) (P04080 [3]): around 30% tetramers
stoichiometry N [4]: 4 and 2

B2: stefin B P11S mutant (of the wt C3S E31-stefin B) (natural protein, human, UniProt P04080 1-98, looked up)
chain: MMSGAPSATQSATAETQHIADQVRSQLEEKENKKFPVFKAVSFKSQVVAGTNYFIKVHVGDEDFVHLRVFQSLPHENKPLTLSNYQTNKAKHDELTYF
notes: human stefin B (cystatin B), 98 amino acids, E31 variant, C3S, with P11S
binding result [4]: binds

B3: stefin B P74S mutant (of the wt C3S E31-stefin B) (protein)
chain: MMSGAPSATQPATAETQHIADQVRSQLEEKENKKFPVFKAVSFKSQVVAGTNYFIKVHVGDEDFVHLRVFQSLSHENKPLTLSNYQTNKAKHDELTYF
percent oligomers (SEC) (P04080 [3]): The tendency to form oligomers is high for the P74S mutant of the wt (>50%)

B4: wild-type like C3S E31-stefin B (human) (natural protein, UniProt P04080 1-98, looked up)
chain: MMSGAPSATQPATAETQHIADQVRSQLEEKENKKFPVFKAVSFKSQVVAGTNYFIKVHVGDEDFVHLRVFQSLPHENKPLTLSNYQTNKAKHDELTYF
notes: human stefin B (cystatin B), 98 amino acids, E31 variant, Cys 3 changed to Ser; also called wt stefin B; wt
percent dimers (SEC peak area) (P04080 [3]): 65% dimers
percent higher oligomers (SEC peak area) (P04080 [3]): 10% of higher oligomers
percent monomers (SEC peak area) (P04080 [3]): 5% monomers
percent tetramers (SEC peak area) (P04080 [3]): 20% tetramers
stoichiometry N [4]: 2 and 4

B5: stefin B-Y31 variant (with Y at site 31) (natural protein, human, UniProt P04080 1-98, looked up)
chain: MMSGAPSATQPATAETQHIADQVRSQLEEKYNKKFPVFKAVSFKSQVVAGTNYFIKVHVGDEDFVHLRVFQSLPHENKPLTLSNYQTNKAKHDELTYF
notes: human stefin B (cystatin B), 98 amino acids, variant with Y at site 31; Cys 3 changed to Ser 'for all in vitro studies'
percent monomers (SEC) (P04080 [5]): 70% and 75% of molecules were monomers, respectively and the rest were dimers
stoichiometry N [6]: 2

B6: stefin B P6L mutant (of the wt C3S E31-stefin B) (natural protein, human, UniProt P04080 1-98, looked up)
chain: MMSGALSATQPATAETQHIADQVRSQLEEKENKKFPVFKAVSFKSQVVAGTNYFIKVHVGDEDFVHLRVFQSLPHENKPLTLSNYQTNKAKHDELTYF
notes: human stefin B (cystatin B), 98 amino acids, E31 variant, C3S, with P6L
binding result [4]: binds

B7: stefin B P36D mutant (of the wt C3S E31-stefin B) (natural protein, human, UniProt P04080 1-98, looked up)
chain: MMSGAPSATQPATAETQHIADQVRSQLEEKENKKFDVFKAVSFKSQVVAGTNYFIKVHVGDEDFVHLRVFQSLPHENKPLTLSNYQTNKAKHDELTYF
notes: human stefin B (cystatin B), 98 amino acids, E31 variant, C3S, with P36D
stoichiometry N [4]: 2 and 4

B8: stefin B-Y31 P36G mutant (natural protein, human, UniProt P04080 1-98, looked up)
chain: MMSGAPSATQPATAETQHIADQVRSQLEEKYNKKFGVFKAVSFKSQVVAGTNYFIKVHVGDEDFVHLRVFQSLPHENKPLTLSNYQTNKAKHDELTYF
notes: human stefin B (cystatin B), 98 amino acids, variant with Y at site 31, with P36G; Cys 3 changed to Ser 'for all in vitro studies'
percent monomers (SEC) (P04080 [5]): 70% and 75% of molecules were monomers, respectively and the rest were dimers
stoichiometry N [6]: 2
